This note sets out measurements from publication PMC4951027.

Usually Kd stands for the concentration at which binding is half-saturated.

The target in this assay is ecto-domain of integrin α5β1-Fc fusion protein. The experiment in a line: SPR. A general note: In SPR one partner is held on a chip, and binding of the other changes the refractive index at the surface.

B1: Fn + FnBPA-10 (FnBPA-10-bound Fn) (complex)
chain 1: not shown
chain 2: not shown
chain 3: KYEHGGNIIDIDFDSVPHIHGFNKHTEIIEEDTNKDKP
Molecule B1 showed a Kd of 260 nM; a ka1 (first step, bivalent analyte model) of 61000 M⁻¹ s⁻¹; a ka2 (second step, bivalent analyte model) of 1.3e-05 RU^-1s^-1; a kd1 (first step, bivalent analyte model) of 0.015 s⁻¹. This molecule came in with a kd2 (second step, bivalent analyte model) of 0.001 s⁻¹.
